From the supplement of paper PMC10065799, “High-throughput profiling of sequence recognition by tyrosine kinases and SH2 domains using bacterial peptide display” (eLife, 2023)

Key:
Grb2 SH2 = Grb2 SH2 (UniProt P62993); assay: SH2 binding enrichment of the phosphorylated peptide, bacterial display (enrichment ratio); higher = better substrate or ligand; peptides without Tyr show the background
c-Src SH2 = assay: as above
SHP2-C SH2 = assay: as above
AncSZ = assay: phosphorylation enrichment, bacterial display (enrichment ratio); higher = better substrate or ligand; peptides without Tyr show the background
Fer (mouse) = assay: as above
c-Src = assay: as above
Fes = Fes (UniProt P07332); assay: as above
MERTK = MERTK (UniProt Q12866); assay: as above
Chain of MERTK (Q12866 whole entry, looked up): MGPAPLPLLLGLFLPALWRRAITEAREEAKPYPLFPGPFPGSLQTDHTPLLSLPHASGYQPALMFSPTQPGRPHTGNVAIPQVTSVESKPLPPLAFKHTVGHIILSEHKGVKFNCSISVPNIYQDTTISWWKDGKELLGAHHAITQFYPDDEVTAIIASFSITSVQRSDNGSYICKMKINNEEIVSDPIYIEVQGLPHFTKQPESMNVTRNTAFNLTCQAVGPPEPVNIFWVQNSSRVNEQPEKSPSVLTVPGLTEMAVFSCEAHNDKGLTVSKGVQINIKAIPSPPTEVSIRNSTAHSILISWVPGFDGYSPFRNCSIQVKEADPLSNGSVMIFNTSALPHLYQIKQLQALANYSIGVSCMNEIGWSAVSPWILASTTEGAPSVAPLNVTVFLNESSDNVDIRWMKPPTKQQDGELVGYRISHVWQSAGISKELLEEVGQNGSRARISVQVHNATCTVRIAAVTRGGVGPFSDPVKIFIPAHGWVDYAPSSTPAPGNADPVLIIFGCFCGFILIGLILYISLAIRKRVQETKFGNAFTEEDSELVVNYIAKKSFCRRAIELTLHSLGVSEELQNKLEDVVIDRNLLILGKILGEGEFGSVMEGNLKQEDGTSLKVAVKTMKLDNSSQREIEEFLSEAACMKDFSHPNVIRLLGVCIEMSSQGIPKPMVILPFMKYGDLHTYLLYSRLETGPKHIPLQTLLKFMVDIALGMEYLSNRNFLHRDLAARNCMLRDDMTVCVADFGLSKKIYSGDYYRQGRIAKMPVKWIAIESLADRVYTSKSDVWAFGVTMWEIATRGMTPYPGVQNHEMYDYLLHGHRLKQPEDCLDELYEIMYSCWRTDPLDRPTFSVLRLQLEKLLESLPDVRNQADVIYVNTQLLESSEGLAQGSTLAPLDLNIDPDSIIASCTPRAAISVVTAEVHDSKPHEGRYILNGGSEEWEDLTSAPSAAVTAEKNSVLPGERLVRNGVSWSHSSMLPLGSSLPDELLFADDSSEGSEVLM

FGFR3 = FGFR3 (UniProt P22607); assay: as above
Chain of FGFR3 (P22607 whole entry, looked up): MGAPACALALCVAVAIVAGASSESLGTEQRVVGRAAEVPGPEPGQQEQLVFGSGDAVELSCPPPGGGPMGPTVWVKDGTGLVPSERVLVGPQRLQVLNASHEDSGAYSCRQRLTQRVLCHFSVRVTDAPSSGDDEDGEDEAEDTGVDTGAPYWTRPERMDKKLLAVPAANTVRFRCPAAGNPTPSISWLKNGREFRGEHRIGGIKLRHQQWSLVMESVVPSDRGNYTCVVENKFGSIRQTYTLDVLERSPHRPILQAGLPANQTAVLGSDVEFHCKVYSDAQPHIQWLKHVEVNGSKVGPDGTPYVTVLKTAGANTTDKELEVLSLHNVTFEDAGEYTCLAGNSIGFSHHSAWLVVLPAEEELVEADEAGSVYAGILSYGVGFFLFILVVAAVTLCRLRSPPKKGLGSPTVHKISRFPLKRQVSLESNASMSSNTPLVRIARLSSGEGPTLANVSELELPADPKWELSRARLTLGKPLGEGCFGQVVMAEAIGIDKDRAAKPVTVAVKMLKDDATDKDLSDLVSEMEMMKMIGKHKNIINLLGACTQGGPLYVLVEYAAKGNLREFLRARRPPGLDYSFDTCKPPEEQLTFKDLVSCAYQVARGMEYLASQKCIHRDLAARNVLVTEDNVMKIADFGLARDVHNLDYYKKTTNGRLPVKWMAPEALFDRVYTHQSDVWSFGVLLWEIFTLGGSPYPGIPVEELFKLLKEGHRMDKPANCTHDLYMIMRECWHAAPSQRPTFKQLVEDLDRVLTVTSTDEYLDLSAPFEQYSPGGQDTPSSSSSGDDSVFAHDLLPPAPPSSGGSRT

EPHB2 = EPHB2 (UniProt P29323); assay: as above
Chain of EPHB2 (P29323 whole entry, looked up): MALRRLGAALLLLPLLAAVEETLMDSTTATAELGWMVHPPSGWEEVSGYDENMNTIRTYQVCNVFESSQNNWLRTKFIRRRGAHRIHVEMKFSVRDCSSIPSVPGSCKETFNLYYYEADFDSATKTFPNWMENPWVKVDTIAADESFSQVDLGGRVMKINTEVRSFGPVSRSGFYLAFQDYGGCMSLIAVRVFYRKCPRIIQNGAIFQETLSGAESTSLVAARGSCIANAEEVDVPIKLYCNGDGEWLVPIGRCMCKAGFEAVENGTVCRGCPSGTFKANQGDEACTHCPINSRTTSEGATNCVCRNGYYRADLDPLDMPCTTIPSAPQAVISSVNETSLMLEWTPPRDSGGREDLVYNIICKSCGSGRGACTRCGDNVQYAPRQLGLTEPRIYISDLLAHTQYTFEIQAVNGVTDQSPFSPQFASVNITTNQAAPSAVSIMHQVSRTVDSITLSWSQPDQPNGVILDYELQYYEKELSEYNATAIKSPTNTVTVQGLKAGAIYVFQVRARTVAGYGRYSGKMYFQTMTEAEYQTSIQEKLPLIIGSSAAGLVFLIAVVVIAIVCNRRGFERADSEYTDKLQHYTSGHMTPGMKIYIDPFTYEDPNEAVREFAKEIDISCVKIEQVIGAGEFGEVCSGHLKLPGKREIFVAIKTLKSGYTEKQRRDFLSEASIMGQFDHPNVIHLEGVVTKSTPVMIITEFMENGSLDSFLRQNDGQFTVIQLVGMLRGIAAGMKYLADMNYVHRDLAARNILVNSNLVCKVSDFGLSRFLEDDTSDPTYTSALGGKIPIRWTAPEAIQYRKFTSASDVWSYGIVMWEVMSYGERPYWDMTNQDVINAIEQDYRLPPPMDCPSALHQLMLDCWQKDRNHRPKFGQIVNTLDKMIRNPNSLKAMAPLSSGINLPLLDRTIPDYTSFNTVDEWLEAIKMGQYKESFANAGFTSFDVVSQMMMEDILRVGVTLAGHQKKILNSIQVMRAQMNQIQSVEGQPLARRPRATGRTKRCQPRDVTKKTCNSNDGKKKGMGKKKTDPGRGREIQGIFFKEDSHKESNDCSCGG

Jak2 = Jak2 (UniProt O60674); assay: as above
Hck = Hck (UniProt P08631); assay: as above
Chain of Hck (P08631 whole entry, looked up): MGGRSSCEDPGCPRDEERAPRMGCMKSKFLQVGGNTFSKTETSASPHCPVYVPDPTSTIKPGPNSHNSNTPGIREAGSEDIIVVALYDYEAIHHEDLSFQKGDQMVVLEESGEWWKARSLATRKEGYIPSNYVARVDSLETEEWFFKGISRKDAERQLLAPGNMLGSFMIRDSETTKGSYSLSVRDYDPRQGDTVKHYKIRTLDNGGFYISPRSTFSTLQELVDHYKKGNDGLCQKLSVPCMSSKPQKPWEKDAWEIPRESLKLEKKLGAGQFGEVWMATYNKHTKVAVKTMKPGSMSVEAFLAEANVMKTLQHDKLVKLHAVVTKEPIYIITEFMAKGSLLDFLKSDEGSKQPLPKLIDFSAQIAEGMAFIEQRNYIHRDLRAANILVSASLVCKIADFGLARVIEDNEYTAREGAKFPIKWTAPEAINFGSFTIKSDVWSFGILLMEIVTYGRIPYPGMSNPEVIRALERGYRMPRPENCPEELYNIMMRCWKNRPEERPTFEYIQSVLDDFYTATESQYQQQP

EPHB1 = EPHB1 (UniProt P54762); assay: as above
Chain of EPHB1 (P54762 whole entry, looked up): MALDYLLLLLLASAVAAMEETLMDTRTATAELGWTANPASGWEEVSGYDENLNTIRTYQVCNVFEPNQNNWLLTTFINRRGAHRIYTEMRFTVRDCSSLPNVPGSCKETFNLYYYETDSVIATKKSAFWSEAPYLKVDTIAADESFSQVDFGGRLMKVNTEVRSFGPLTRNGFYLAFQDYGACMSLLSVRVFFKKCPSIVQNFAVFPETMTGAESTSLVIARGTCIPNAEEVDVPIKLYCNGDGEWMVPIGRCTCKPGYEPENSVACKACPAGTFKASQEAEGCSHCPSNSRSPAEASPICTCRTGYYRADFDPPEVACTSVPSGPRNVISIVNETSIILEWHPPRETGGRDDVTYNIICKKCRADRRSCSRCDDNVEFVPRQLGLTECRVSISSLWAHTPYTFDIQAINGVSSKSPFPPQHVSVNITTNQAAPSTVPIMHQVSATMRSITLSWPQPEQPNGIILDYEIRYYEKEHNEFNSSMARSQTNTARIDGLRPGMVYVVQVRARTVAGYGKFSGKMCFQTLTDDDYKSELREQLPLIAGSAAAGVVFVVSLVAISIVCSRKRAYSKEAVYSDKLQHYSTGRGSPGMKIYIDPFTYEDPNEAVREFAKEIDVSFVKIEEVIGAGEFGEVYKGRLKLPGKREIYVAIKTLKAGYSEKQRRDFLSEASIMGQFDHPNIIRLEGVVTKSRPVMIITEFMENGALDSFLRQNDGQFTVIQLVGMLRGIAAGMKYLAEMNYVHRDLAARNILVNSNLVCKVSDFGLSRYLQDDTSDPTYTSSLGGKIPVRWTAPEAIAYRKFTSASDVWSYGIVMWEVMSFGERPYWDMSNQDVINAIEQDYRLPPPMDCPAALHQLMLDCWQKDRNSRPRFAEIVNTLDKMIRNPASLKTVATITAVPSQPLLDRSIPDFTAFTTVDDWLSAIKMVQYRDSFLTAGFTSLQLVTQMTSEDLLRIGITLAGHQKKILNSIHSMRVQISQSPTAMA

FGFR1 = FGFR1 (UniProt P11362); assay: as above
c-Abl (mouse) = assay: as above
Fyn = Fyn (UniProt P06241); assay: as above
Chain of Fyn (P06241 whole entry, looked up, the tested form may be a part): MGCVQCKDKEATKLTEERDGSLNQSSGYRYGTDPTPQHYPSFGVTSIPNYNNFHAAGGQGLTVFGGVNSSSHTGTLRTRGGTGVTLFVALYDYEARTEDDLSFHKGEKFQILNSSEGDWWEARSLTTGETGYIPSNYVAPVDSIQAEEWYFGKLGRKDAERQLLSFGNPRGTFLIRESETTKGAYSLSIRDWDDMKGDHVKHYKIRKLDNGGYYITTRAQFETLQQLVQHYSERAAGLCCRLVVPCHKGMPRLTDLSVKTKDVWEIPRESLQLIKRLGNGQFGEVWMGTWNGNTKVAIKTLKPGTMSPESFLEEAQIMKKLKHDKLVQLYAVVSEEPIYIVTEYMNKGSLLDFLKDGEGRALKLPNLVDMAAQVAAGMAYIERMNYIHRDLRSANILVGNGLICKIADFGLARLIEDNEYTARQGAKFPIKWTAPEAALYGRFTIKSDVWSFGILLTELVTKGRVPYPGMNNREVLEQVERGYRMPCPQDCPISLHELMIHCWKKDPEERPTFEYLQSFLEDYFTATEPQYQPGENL
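For SH2 binding enrichment of the phosphorylated peptide, bacterial display in this document: peptide library displayed on the E. coli surface as eCPX fusions, selected cells deep-sequenced, score is each peptide's frequency after selection divided by its frequency in the input.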
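For phosphorylation enrichment, bacterial display in this document: 11-residue human phosphosite peptides and single-mutation variants displayed on the E. coli surface, counted by deep sequencing, each peptide's frequency after selection divided by its frequency in the unselected input library; frequency after pTyr selection over input frequency; kinase dosed for 20-30% of maximal phosphorylation in three min.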

Row | SH2 binding enrichment (Grb2 SH2) | SH2 binding enrichment (c-Src SH2) | SH2 binding enrichment (SHP2-C SH2) | Sequence | phosphorylation enrichment (AncSZ) | phosphorylation enrichment (Fer (mouse)) | phosphorylation enrichment (c-Src) | phosphorylation enrichment (Fes) | phosphorylation enrichment (MERTK) | phosphorylation enrichment (FGFR3) | phosphorylation enrichment (EPHB2) | phosphorylation enrichment (Jak2) | phosphorylation enrichment (Hck) | phosphorylation enrichment (EPHB1) | phosphorylation enrichment (FGFR1) | phosphorylation enrichment (c-Abl (mouse)) | phosphorylation enrichment (Fyn)
1 | 0.738 | 0.329 | 0.547 | DLDLTYIFPNI [PTEN_Y27_YF] | 4.58 | 0.56 | 3.89 | 1.34 | 3.52 | 2.77 | 1.15 | 2.57 | 1.76 | 2.03 | 3.31 | 1.17 | 6.27
2 | 0.876 | 0.813 | 0.814 | DLNATYRTIQG [U2SURP_Y634] | 0.631 | 0.518 | 0.674 | 0.846 | 0.473 | 0.6 | 0.751 | 0.609 | 0.688 | 0.578 | 0.583 | 0.641 | 0.646
3 | 0.825 | 0.448 | 0.561 | DLQDEYDFKCK [STAT1_Y170] | 1.28 | 0.555 | 0.546 | 1.31 | 0.538 | 0.772 | 0.702 | 1.19 | 0.766 | 0.598 | 0.668 | 0.877 | 0.543
4 | 1.05 | 0.583 | 0.637 | DSFWSYCNAVA [SLC20A2_Y436_S434W_YF] | 1.45 | 0.57 | 0.443 | 1.31 | 0.421 | 0.805 | 0.67 | 1.19 | 0.569 | 0.76 | 0.65 | 0.745 | 0.527
5 | 1.02 | 0.817 | 0.649 | DSYWSYCNAVA [SLC20A2_Y436_S434W] | 1.43 | 0.644 | 4.44 | 1.12 | 0.952 | 2.42 | 1.93 | 1.27 | 3.31 | 2.64 | 4.16 | 1.45 | 5.46

Second part, the sequence before the results:

Row | Sequence | SH2 binding enrichment (Grb2 SH2) | SH2 binding enrichment (c-Src SH2) | SH2 binding enrichment (SHP2-C SH2) | phosphorylation enrichment (AncSZ) | phosphorylation enrichment (Fer (mouse)) | phosphorylation enrichment (c-Src) | phosphorylation enrichment (Fes) | phosphorylation enrichment (MERTK) | phosphorylation enrichment (FGFR3) | phosphorylation enrichment (EPHB2) | phosphorylation enrichment (Jak2) | phosphorylation enrichment (Hck) | phosphorylation enrichment (EPHB1) | phosphorylation enrichment (FGFR1) | phosphorylation enrichment (c-Abl (mouse)) | phosphorylation enrichment (Fyn)
6 | DFLEKYFKFGC [NNMT_Y24_S29C_YF] | 0.84 | 0.674 | 0.763 | 1.11 | 0.554 | 0.549 | 1.38 | 0.507 | 0.73 | 0.545 | 0.993 | 0.417 | 0.55 | 0.497 | 0.768 | 0.435
7 | DGFTDYAEFAK [MCFD2_Y138_I136T_YF] | 0.823 | 0.547 | 0.864 | 1.24 | 0.477 | 1.11 | 1.31 | 0.542 | 0.752 | 0.741 | 1.34 | 0.954 | 0.88 | 0.654 | 0.811 | 0.974
8 | DGQVNYEGFVQ [CALM1_Y139_E141G] | 0.659 | 0.586 | 0.467 | 0.996 | 0.793 | 0.603 | 1.07 | 0.453 | 0.724 | 1.01 | 1.04 | 0.553 | 1.31 | 0.496 | 1.19 | 0.512
9 | DKATEYSQYMR [MAX_Y70_I71S] | 0.643 | 0.609 | 0.82 | 0.87 | 0.499 | 0.745 | 0.864 | 0.473 | 0.541 | 0.525 | 0.636 | 0.556 | 0.45 | 0.531 | 0.677 | 0.571
10 | DLEKTYNTFRS [B4GALNT2_Y538_A533D_YF] | 0.846 | 0.506 | 0.629 | 0.656 | 0.391 | 1.75 | 0.851 | 0.291 | 0.55 | 0.319 | 0.736 | 0.734 | 0.445 | 0.431 | 0.523 | 0.967
11 | DLTQDYEEWKR [ORC6_Y232] | 0.982 | 0.55 | 0.647 | 1.8 | 0.715 | 0.696 | 1.47 | 0.526 | 0.862 | 0.882 | 1.28 | 0.845 | 0.796 | 0.509 | 0.84 | 0.707
12 | DMGAQYAAASR [ARID1B_Y483_P488R] | 0.761 | 0.612 | 0.553 | 0.575 | 0.393 | 0.365 | 0.54 | 0.31 | 0.396 | 0.375 | 0.49 | 0.402 | 0.371 | 0.357 | 0.644 | 0.37
13 | DNEFAYLKAII [HNF4A_Y288_YF] | 0.775 | 0.429 | 0.491 | 1.13 | 0.381 | 0.419 | 1.07 | 0.334 | 0.648 | 0.455 | 0.91 | 0.407 | 0.45 | 0.425 | 0.689 | 0.386
14 | DNPAKYFILEN [DPP10_Y512_S517N] | 0.659 | 0.828 | 0.636 | 1.03 | 0.531 | 0.495 | 1.2 | 0.509 | 0.617 | 0.456 | 1.41 | 0.392 | 0.59 | 0.557 | 0.935 | 0.459
15 | DPFHVYIKNRV [KCNE3_Y95_YF] | 1.13 | 0.604 | 0.936 | 1.27 | 0.486 | 0.31 | 1.19 | 0.369 | 0.764 | 0.464 | 1.08 | 0.437 | 0.604 | 0.455 | 0.692 | 0.415
16 | DSIRDYEDGTE [CLNS1A_Y214_M218T] | 0.829 | 0.577 | 0.67 | 1.55 | 0.766 | 1.1 | 1.58 | 0.959 | 0.988 | 0.565 | 1.35 | 0.57 | 0.784 | 0.511 | 1.02 | 0.602
